Assay results from the Human Domainome abundance scans (Beltran et al. 2025).
± gives the uncertainty stated by the source.

B1: SAM and SH3 domain-containing protein 1, residues 630 to 700; numbered along this chain, O94885 (parent)
chain: GRPPQPKSVEDLLDRINLKEHMPTFLFNGYEDLDTFKLLEEEDLDELNIRDPEHRAVLLTAVELLQEYDSN

Variants of: B1
Experiment: abundance fitness (aPCA) (normalised: wild type 0, dead -1); higher = more abundant; growth selection in yeast, the domain comes from the species named
Conditions: Homo sapiens

Variant	abundance fitness
N17Q	-0.289 ± 0.053
N17S	-0.279 ± 0.04
N17F	-0.726 ± 0.085
N17I	-0.851 ± 0.086
D11L	-0.9 ± 0.057
D11C	-0.795 ± 0.079
D11F	-0.925 ± 0.08
D11I	-1.08 ± 0.11
D11M	-0.97 ± 0.088
D11A	-0.607 ± 0.061
D11T	-0.818 ± 0.064
V62N	-0.578 ± 0.09
V62I	-0.14 ± 0.052
V62F	-0.916 ± 0.1
V62P	-0.517 ± 0.062
V62Y	-0.82 ± 0.093
V62C	-0.241 ± 0.051
D51W	-0.862 ± 0.079
D51Q	-0.307 ± 0.048
L44A	-0.779 ± 0.061
L44R	-0.904 ± 0.065
L44W	-0.773 ± 0.085
L44D	-0.819 ± 0.087
L44K	-0.746 ± 0.076

Variant	abundance fitness
E67D	0.02 ± 0.053
E67P	-0.457 ± 0.049
E67G	-0.107 ± 0.046
E67N	-0.1 ± 0.048
E67I	-0.492 ± 0.057
E67L	-0.468 ± 0.041
E67T	-0.048 ± 0.04
T35G	-0.442 ± 0.062
T35D	0.108 ± 0.051
T35W	-0.973 ± 0.12
D34K	-0.291 ± 0.054
D34M	-0.518 ± 0.058
D34H	-0.426 ± 0.049
D34Q	-0.116 ± 0.048
D34Y	-0.679 ± 0.059
L64W	0.148 ± 0.043
L64E	0.483 ± 0.045
L64T	0.166 ± 0.038
L64I	-0.393 ± 0.054
L64M	0.193 ± 0.043
L64K	0.264 ± 0.044
L18E	-0.797 ± 0.092
L18R	-1.02 ± 0.066
L18G	-0.89 ± 0.064

Variant	abundance fitness
L18Q	-0.652 ± 0.074
L18M	0.158 ± 0.044
D45W	-0.499 ± 0.064
D45K	-0.135 ± 0.048
D45P	-0.833 ± 0.063
D45E	-0.276 ± 0.06
D45Q	-0.557 ± 0.059
D45T	-0.38 ± 0.042
D45F	-0.48 ± 0.049
L13K	-0.715 ± 0.08
L13Y	-0.905 ± 0.096
L13F	-0.576 ± 0.071
L13H	-0.801 ± 0.096
L13W	-0.99 ± 0.095
L13M	-0.724 ± 0.077
H54N	-0.635 ± 0.064
H54V	-0.189 ± 0.037
H54R	-0.823 ± 0.053
H54A	-0.169 ± 0.039
H54E	0.13 ± 0.052
P4Y	0.067 ± 0.049
P4M	0.078 ± 0.059
P4N	0.09 ± 0.05
P4C	-0.088 ± 0.072

Variant	abundance fitness
P4H	-0.01 ± 0.054
P4F	0.2 ± 0.05
P4E	0.237 ± 0.067
P4S	-0.03 ± 0.045
E41A	-0.075 ± 0.048
E41D	-0.419 ± 0.075
E41S	-0.34 ± 0.042
L47R	-0.922 ± 0.055
L47P	-0.799 ± 0.066
M22P	-0.999 ± 0.087
M22W	0.281 ± 0.041
M22G	-0.346 ± 0.042
M22E	-0.213 ± 0.054
M22Y	0.277 ± 0.038
M22T	0.009 ± 0.04
M22Q	-0.366 ± 0.056
M22F	0.081 ± 0.043
M22I	0.131 ± 0.039
V57F	-0.747 ± 0.077
V57M	0.067 ± 0.045
V57H	-0.166 ± 0.049
V57I	-0.059 ± 0.048
V57T	0.232 ± 0.038
A56P	-0.772 ± 0.053

Variant	abundance fitness
A56N	-0.108 ± 0.04
A56V	-0.493 ± 0.048
A56T	-0.114 ± 0.035
A56E	0.085 ± 0.05
Y30H	-0.737 ± 0.071
Y30S	-0.706 ± 0.052
Y30N	-0.833 ± 0.08
Y30G	-0.987 ± 0.076
Y30T	-0.906 ± 0.07
Y30R	-0.891 ± 0.068
E63S	0.004 ± 0.034
E63I	-0.898 ± 0.077
E63W	-0.751 ± 0.081
E63M	-0.492 ± 0.063
E63D	-0.058 ± 0.044
Y68I	-0.191 ± 0.055
R55F	-0.864 ± 0.093
R55A	-0.9 ± 0.082
R55N	-0.891 ± 0.086
R55S	-0.731 ± 0.06
R55L	-1.01 ± 0.071
R55Q	-0.5 ± 0.071
R55P	-0.895 ± 0.087
D43N	-0.058 ± 0.044

Variant	abundance fitness
D43L	-0.894 ± 0.049
D43H	-0.201 ± 0.042
I16F	-0.266 ± 0.064
I16V	-0.199 ± 0.052
I16H	-0.278 ± 0.069
I16P	-0.994 ± 0.099
I16C	-0.067 ± 0.063
I16D	-0.703 ± 0.15
I16L	0.128 ± 0.038
I49C	-0.728 ± 0.072
I49W	-0.823 ± 0.081
I49H	-0.784 ± 0.068
R2Y	-0.317 ± 0.069
R2I	-0.011 ± 0.047
R2K	-0.212 ± 0.05
R2S	-0.446 ± 0.056
R2C	-0.971 ± 0.13
R2A	-0.489 ± 0.072
H21W	-0.248 ± 0.047
E53Y	-0.557 ± 0.063
E53F	-0.673 ± 0.079
E53W	-0.575 ± 0.075
E53V	-0.283 ± 0.046
K19S	0.085 ± 0.033

Variant	abundance fitness
K19G	-0.236 ± 0.051
K19E	-0.434 ± 0.073
K19H	-0.262 ± 0.05
R15Q	-0.017 ± 0.045
R15Y	-0.3 ± 0.053
R15V	-0.381 ± 0.046
R15W	-0.411 ± 0.071
R15K	-0.036 ± 0.049
T60H	0.302 ± 0.041
T60Y	-0.449 ± 0.053
T60R	0.237 ± 0.032
T60L	-0.579 ± 0.046
T60Q	0.266 ± 0.043
T60A	0.242 ± 0.042
T60E	0.398 ± 0.052
T60D	0.245 ± 0.05
T60V	-0.735 ± 0.069
K37S	-0.337 ± 0.045
K37N	-0.799 ± 0.074
K37Y	-1.11 ± 0.12
K37Q	-0.478 ± 0.073
A61R	-0.904 ± 0.07
A61I	-0.983 ± 0.11
